Measurements: US20240209061A1, “FUSION PROTEINS AND USES THEREOF” (Pfizer Inc., priority 2020, published 2024)

Assays:
[1] = test system: peripheral blood mononuclear cells (PBMC); test: RESTORE cytokine release assay in absence of TCR stimulation; assay type: cell-based, human; design: IFNγ: unit not given beside the values
Procedure: The ability of variant CD80-Fc fusion proteins to promote cytokine release in the absence of TCR stimulation was assessed in the RESTORE (RESetting T cells to Original Reactivity) assay (Römer et al, Blood, 2011). Freshly isolated peripheral blood mononuclear cells (PBMC) from whole blood of several healthy donors were cultured for 48 hours at […] within RPMI1640 media supplemented with 10% autologous plasma, 10 mM HEPES, 1× GlutaMAX, 1× PenStrep, beta2-mercaptoethanol, NEAA and sodium pyruvate. Following the 48-hour incubation, PBMC were pelleted and resuspended at a final concentration of 10^6/ml with indicated soluble drug. Treatment was allowed for 48 hours then supernatant was harvested and assessed in IL-2 and IFNγ ELISA according to manufacturer's protocol (BioLegend).
Positive controls included CD28 superagonist anti-CD28 clone TGN1412 as IgG1 and IgG4 isotypes and anti-CD3. […] Values shown are the average of 3 technical replicates. D=Donor.

[2] = test system: CT26 murine colorectal carcinoma tumor cells; test: CT26 murine colorectal carcinoma model; assay type: in vivo, mouse; conditions: for Day 10 tumor volume: Days 0 and 3; for % tumor growth inhibition: Day 10
Procedure: CT26 murine colorectal carcinoma tumor cells (1×10^6) were subcutaneously implanted in the hind flank of female Balb/c mice. When tumors reached ˜100 mm3 (Day 8), mice were randomized. PBS vehicle control or variant CD80-Fc fusion proteins were dosed intravenously at 0.1 and 1.0 mg/kg on Days 0 and 3. Tumor volume was determined by caliper measurements obtained in 2 dimensions and calculated as width^2×length/2. Error bars are depicted as ±SEM.
IFNγ ELIspot was used to measure tumor-reactive T cells in the spleen in mice treated with CD80-Fc fusion proteins at a 1 mg/kg dose.
Cytotoxic CD8^+ T cells are responsible for killing cancer cells and the measurement of CD8^+ T cells that have infiltrated tumors commonly correlates with efficacy for immune-oncology therapies. For all in vivo studies, tumors were collected ˜1 week after the first dose and dissociated by mincing, followed by incubation in an enzymatic digestion cocktail and homogenization. The resulting cell suspension was filtered and washed, and single cells were stained with antibodies to CD45, CD8, and a viability dye to detect tumor-infiltrating lymphocytes (TILs) by flow cytometry. Data were acquired on a BD LSRFortessa flow cytometer or a Cytek Aurora spectral flow cytometer. Table 31 and FIG. 18 show the amount of tumor-infiltrating CD8+ T cells expressed as a percentage of total immune cells (CD45+). Each value is the average of n=4 mice per group. Treatment with all variant CD80-Fc fusion proteins led to increase in CD8+ TILs in various tumor models.

[3] = Pharmacokinetics in cynomolgus monkeys; assay type: in vivo; conditions: cynomolgus monkey
Procedure: PK of variant CD80-Fc fusion proteins was assessed in non-human primates. […] A ligand binding assay using the Gyrolab Immunoassay platform was used to quantitate CD80-Fc molecules in cynomolgus monkey serum following dose administration. CD80-Fc constructs were captured onto the Gyrolab Bioaffy CD using a biotinylated monoclonal anti-human CD80 antibody (Thermo Fisher Cat #13-0809-82). Bound CD80-Fc constructs were detected using a mouse anti-human Fc antibody (SouthernBiotech Cat #9040-01) that was labeled with Alexa Fluor 647. Sample concentrations were determined by interpolation from a calibration curve that were fit using a 5-parameter logistic regression model. The range of quantitation of the assay was 100-15000 ng/ml in 100% serum. […] AUC (Area Under the Curve); Cmax (Maximum Concentration observed); Tmax (Time of Maximum concentration observed)

Work on “CD80-K89Q-D90Q-E23C-A26C-Fc: disulfide stabilized variant CD80-Fc fusion protein (K89Q, D90Q, E23C, A26C)” yielded an IFNγ ([1]; Table 20, D222, 1 μg/ml) of 7.3, an IFNγ ([1]; Table 20, D222, 10 μg/ml) of 4.3 and an IL-2 ([1]; Table 20, D222, 10 μg/ml) of 6.7. The IFNγ ([1]; Table 20, D281, 1 μg/ml) was 3.0, the IL-2 ([1]; Table 20, D281, 1 μg/ml) was 2.7 and the IFNγ ([1]; Table 20, D281, 10 μg/ml) was 3.7. For the same substance, the IL-2 ([1]; Table 20, D281, 10 μg/ml) was 5.7, the IFNγ ([1]; Table 20, D462, 1 μg/ml) was 7.0 and the IL-2 ([1]; Table 20, D462, 1 μg/ml) was 2.0. For the same substance, the IFNγ ([1]; Table 20, D462, 10 μg/ml) was 7.3, the IL-2 ([1]; Table 20, D462, 10 μg/ml) was 3.0 and the IFNγ ([1]; Table 20, D547, 1 μg/ml) was 4.3. For the same substance, the IL-2 ([1]; Table 20, D547, 1 μg/ml) was 13.3, the IFNγ ([1]; Table 20, D547, 10 μg/ml) was 3.0 and the IL-2 ([1]; Table 21, D132, 1.9 μg/ml) was 0.0. For the same substance, the IL-2 ([1]; Table 21, D132, 5.6 μg/ml) was 0.0, the IL-2 ([1]; Table 21, D132, 16.7 μg/ml) was 0.3 and the IL-2 ([1]; Table 21, D149, 1.9 μg/ml) was 0.0. For the same substance, the IL-2 ([1]; Table 21, D149, 5.6 μg/ml) was 0.0, the IL-2 ([1]; Table 21, D149, 16.7 μg/ml) was 0.0 and the IL-2 ([1]; Table 21, D149, 50 μg/ml) was 0.0. For the same substance, the IL-2 ([1]; Table 21, D379, 1.9 μg/ml) was 29.0, the IL-2 ([1]; Table 21, D379, 5.6 μg/ml) was 2.3 and the IL-2 ([1]; Table 21, D379, 16.7 μg/ml) was 0.0. For the same substance, the IL-2 ([1]; Table 21, D379, 50 μg/ml) was 0.0, the IL-2 ([1]; Table 21, D399, 1.9 μg/ml) was 0.0 and the IL-2 ([1]; Table 21, D399, 5.6 μg/ml) was 2.0. For the same substance, the IL-2 ([1]; Table 21, D399, 16.7 μg/ml) was 0.0, the IL-2 ([1]; Table 21, D399, 50 μg/ml) was 0.0 and the IL-2 ([1]; Table 21, D417, 1.9 μg/ml) was 3.0. It also gave an IL-2 ([1]; Table 21, D417, 5.6 μg/ml) of 0.0, an IL-2 ([1]; Table 21, D417, 16.7 μg/ml) of 0.3 and an IL-2 ([1]; Table 21, D417, 50 μg/ml) of 0.0. For the same substance, the IL-2 ([1]; Table 21, D518, 1.9 μg/ml) was 0.0, the IL-2 ([1]; Table 21, D518, 5.6 μg/ml) was 2.0 and the IL-2 ([1]; Table 21, D518, 16.7 μg/ml) was 1.7. For the same substance, the IL-2 ([1]; Table 21, D518, 50 μg/ml) was 2.7, the IFNγ ([1]; Table 22, D132, 1.9 μg/ml) was 0.0 and the IFNγ ([1]; Table 22, D132, 5.6 μg/ml) was 78.0. It also gave an IFNγ ([1]; Table 22, D132, 16.7 μg/ml) of 0.0, an IFNγ ([1]; Table 22, D132, 50 μg/ml) of 0.0 and an IFNγ ([1]; Table 22, D149, 1.9 μg/ml) of 0.0. The IFNγ ([1]; Table 22, D149, 5.6 μg/ml) was 0.0, the IFNγ ([1]; Table 22, D149, 16.7 μg/ml) was 0.0 and the IFNγ ([1]; Table 22, D149, 50 μg/ml) was 41.3. The IFNγ ([1]; Table 22, D379, 1.9 μg/ml) was 0.0, the IFNγ ([1]; Table 22, D379, 5.6 μg/ml) was 0.0 and the IFNγ ([1]; Table 22, D379, 16.7 μg/ml) was 0.0. The IFNγ ([1]; Table 22, D379, 50 μg/ml) was 0.0, the IFNγ ([1]; Table 22, D399, 1.9 μg/ml) was 0.0 and the IFNγ ([1]; Table 22, D399, 5.6 μg/ml) was 0.0. For the same substance, the IFNγ ([1]; Table 22, D399, 16.7 μg/ml) was 0.0, the IFNγ ([1]; Table 22, D399, 50 μg/ml) was 4.3 and the IFNγ ([1]; Table 22, D417, 1.9 μg/ml) was 0.0. It also gave an IFNγ ([1]; Table 22, D417, 5.6 μg/ml) of 0.0, an IFNγ ([1]; Table 22, D417, 16.7 μg/ml) of 0.0 and an IFNγ ([1]; Table 22, D417, 50 μg/ml) of 0.0. For the same substance, the IFNγ ([1]; Table 22, D518, 1.9 μg/ml) was 0.0, the IFNγ ([1]; Table 22, D518, 5.6 μg/ml) was 0.0 and the IFNγ ([1]; Table 22, D518, 16.7 μg/ml) was 20.7. The IFNγ ([1]; Table 22, D518, 50 μg/ml) was 0.0, the “Number of tumor regressions” value ([2]; 0.1 mg/kg) was 5/10 and the “Day 10 tumor volume” value ([2]; 0.1 mg/kg IV) was 289.9 mm^3. For the same substance, the “% tumor growth inhibition” value ([2]; 0.1 mg/kg) was 75.80%, the “Number of tumor regressions” value ([2]; 1 mg/kg) was 6/10 and the “Day 10 tumor volume” value ([2]; 1 mg/kg IV) was 305.3 mm^3. For the same substance, the “% tumor growth inhibition” value ([2]; 1 mg/kg) was 74.51%, the “# IFNγ-producing spots (tumor-reactive T cells in spleen)” value ([2]; 1 mg/kg, average of n = 4 mice) was 547.375 and the AUC ([3]; 3 mpk IV) was 3680 µg·h/mL. The “AUC fold-increase over WT” value ([3]; 3 mpk IV) was 1.48, the Cmax ([3]; 3 mpk IV) was 107 µg/mL and the Tmax ([3]; 3 mpk IV) was 4.98 min. The AUC ([3]; 15 mpk IV) was 27800 µg·h/mL, the “AUC fold-increase over WT” value ([3]; 15 mpk IV) was 2.00 and the Cmax ([3]; 15 mpk IV) was 627 µg/mL. For the same substance, the Tmax ([3]; 15 mpk IV) was 4.98 min, the AUC ([3]; 50 mpk IV) was 72200 µg·h/mL and the “AUC fold-increase over WT” value ([3]; 50 mpk IV) was 1.95. It also gave a Cmax ([3]; 50 mpk IV) of 1790 µg/mL and a Tmax ([3]; 50 mpk IV) of 4.98 min.
